Measured values from IntAct's records for PubMed 21763481.

B1: B9 domain-containing protein 2 (Mus musculus), Q3UK10 (parent)
chain: MAEVHVIGQIIGATGFSESSLFCKWGIHTGAAWKLLSGVREGQTQVDTPQIGDMAYWSHPIDLHFATKGLQGWPRLHLQVWSQDSFGRCQLAGYGFCHVPSSPGTHQLDCPTWRPLGSWREQLARAFVGGGPQLLHADTIYSGADRYRLHTAAGGTVHLGIGLLLRHFDRYGVEC
partner: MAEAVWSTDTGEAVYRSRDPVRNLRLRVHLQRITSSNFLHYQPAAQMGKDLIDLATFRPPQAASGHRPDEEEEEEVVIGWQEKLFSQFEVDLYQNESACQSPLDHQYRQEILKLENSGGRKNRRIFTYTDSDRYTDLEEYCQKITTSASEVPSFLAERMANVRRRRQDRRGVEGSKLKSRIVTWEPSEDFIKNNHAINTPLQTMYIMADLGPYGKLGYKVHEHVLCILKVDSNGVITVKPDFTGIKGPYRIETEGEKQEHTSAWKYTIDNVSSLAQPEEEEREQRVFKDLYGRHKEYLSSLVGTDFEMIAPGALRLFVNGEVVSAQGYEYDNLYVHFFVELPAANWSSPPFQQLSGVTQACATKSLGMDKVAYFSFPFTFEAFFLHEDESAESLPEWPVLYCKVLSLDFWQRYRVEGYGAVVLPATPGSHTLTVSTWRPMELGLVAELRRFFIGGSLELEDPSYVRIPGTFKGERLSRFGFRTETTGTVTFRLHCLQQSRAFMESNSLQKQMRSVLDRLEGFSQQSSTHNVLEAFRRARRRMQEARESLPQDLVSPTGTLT
B2: B9 domain-containing protein 2 (Mus musculus), Q3UK10 (parent)
chain: B1 chain
partner: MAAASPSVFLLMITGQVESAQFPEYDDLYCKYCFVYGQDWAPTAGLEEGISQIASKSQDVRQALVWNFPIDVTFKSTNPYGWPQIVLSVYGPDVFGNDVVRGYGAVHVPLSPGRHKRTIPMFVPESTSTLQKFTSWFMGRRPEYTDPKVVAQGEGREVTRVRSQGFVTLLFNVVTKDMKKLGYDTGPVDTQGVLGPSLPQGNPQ

Variants of: B1
Conditions: with mks1_mouse Mks1, Q5SW45

Row | Variant | effect of a mutation on the interaction
1 | MAEVHVIGQIIGATGFSESSLFCKWGIHTGAAWKLLSGVREGQTQVDTPQIGDMAYWSHPIDLHFATKGLQGWPRLHLQVWSQDSFGRCQLAGYGFCHVPRSPGTHQLDCPTWRPLGSWREQLARAFVGGGPQLLHADTIYSGADRYRLHTAAGGTVHLGIGLLLRHFDRYGVEC [S101R] | disrupting interaction

Variants of: B2
Conditions: with b9d1_mouse B9d1, Q9R1S0

Row | Variant | effect of a mutation on the interaction
2 | MAEVHVIGQIIGATGFSESSLFCKWGIHTGAAWKLLSGVREGQTQVDTPQIGDMAYWSHPIDLHFATKGLQGWPRLHLQVWSQDSFGRCQLAGYGFCHVPRSPGTHQLDCPTWRPLGSWREQLARAFVGGGPQLLHADTIYSGADRYRLHTAAGGTVHLGIGLLLRHFDRYGVEC [S101R] | with no effect
